Test results taken from patent US7658917 (PRAECIS PHARMACEUTICALS, dated 2010).
Where two headings read alike, the source gives them in different places. Ends that are not written are not given here. * marks the point of attachment. Cholyl = C[C@H](CCC(=O)*)[C@H]1CC[C@H]2[C@@H]3[C@H](O)C[C@@H]4C[C@H](O)CC[C@]4(C)[C@H]3C[C@H](O)[C@]12C; iminobiotinyl = N=C1N[C@H]2[C@H](CS[C@H]2CCCCC(=O)*)N1

Key:
Assay in all cases: cell-based or functional assay
[1] = target: natural β-amyloid peptide β-AP1-40 (human)
[2] = target: natural β-amyloid peptide β-AP1-40 (human); remark: listed apart in the source
[3] = target: natural β-amyloid peptide β-AP1-40 (human); remark: listed apart in the source

Sequence of natural β-amyloid peptide β-AP1-40 (human) (peptide, as listed by the source): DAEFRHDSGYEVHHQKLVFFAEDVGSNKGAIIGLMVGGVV

Binder	% Inhibition of Plateau; nucleation assay; 33 mole % [1] [%]	Fold Increase in Lag Time; nucleation assay; 33 mole % [1] [fold]	% Inhibition of Plateau; nucleation assay; 100 mole % [2] [%]	Fold Increase in Lag Time; nucleation assay; 100 mole % [2] [fold]	% Iext'n; seeded extension assay; 25 mole % [3] [%]	% Inucl'n; nucleation assay; 100 mole % [3] [%]	ΔLag; nucleation assay; 100 mole % [3] [ratio]	other results
Cholyl-HDSGYEVHHQKLVF-NH2 (SMILES CC(C)C[C@H](NC(=O)[C@H](CCCCN)NC(=O)[C@H](CCC(N)=O)NC(=O)[C@H](Cc1c[nH]cn1)NC(=O)[C@H](Cc1c[nH]cn1)NC(=O)[C@@H](NC(=O)[C@H](CCC(=O)O)NC(=O)[C@H](Cc1ccc(O)cc1)NC(=O)CNC(=O)[C@H](CO)NC(=O)[C@H](CC(=O)O)NC(=O)[C@H](Cc1c[nH]cn1)NC(=O)CC[C@@H](C)[C@H]1CC[C@H]2[C@@H]3[C@H](O)C[C@@H]4C[C@H](O)CC[C@]4(C)[C@H]3C[C@H](O)[C@]12C)C(C)C)C(=O)N[C@H](C(=O)N[C@@H](Cc1ccccc1)C(N)=O)C(C)C) [cholyl-Aβ6-19-amide (PPI-321 as printed in Table III)]	~0	1.4	–	–	–	–	–	–
Cholyl-HDSGYEVHHQKL-NH2 (SMILES CC(C)C[C@H](NC(=O)[C@H](CCCCN)NC(=O)[C@H](CCC(N)=O)NC(=O)[C@H](Cc1c[nH]cn1)NC(=O)[C@H](Cc1c[nH]cn1)NC(=O)[C@@H](NC(=O)[C@H](CCC(=O)O)NC(=O)[C@H](Cc1ccc(O)cc1)NC(=O)CNC(=O)[C@H](CO)NC(=O)[C@H](CC(=O)O)NC(=O)[C@H](Cc1c[nH]cn1)NC(=O)CC[C@@H](C)[C@H]1CC[C@H]2[C@@H]3[C@H](O)C[C@@H]4C[C@H](O)CC[C@]4(C)[C@H]3C[C@H](O)[C@]12C)C(C)C)C(N)=O) [cholyl-Aβ6-17-amide]	~0	1.8	–	–	–	–	–	–
Cholyl-HDSGYEVHH-NH2 (SMILES CC(C)[C@H](NC(=O)[C@H](CCC(=O)O)NC(=O)[C@H](Cc1ccc(O)cc1)NC(=O)CNC(=O)[C@H](CO)NC(=O)[C@H](CC(=O)O)NC(=O)[C@H](Cc1c[nH]cn1)NC(=O)CC[C@@H](C)[C@H]1CC[C@H]2[C@@H]3[C@H](O)C[C@@H]4C[C@H](O)CC[C@]4(C)[C@H]3C[C@H](O)[C@]12C)C(=O)N[C@@H](Cc1c[nH]cn1)C(=O)N[C@@H](Cc1c[nH]cn1)C(N)=O) [cholyl-Aβ6-14-amide]	29	1	–	–	–	–	–	–
Cholyl-LVFFA-OH (SMILES CC(C)C[C@H](NC(=O)CC[C@@H](C)[C@H]1CC[C@H]2[C@@H]3[C@H](O)C[C@@H]4C[C@H](O)CC[C@]4(C)[C@H]3C[C@H](O)[C@]12C)C(=O)N[C@H](C(=O)N[C@@H](Cc1ccccc1)C(=O)N[C@@H](Cc1ccccc1)C(=O)N[C@@H](C)C(=O)O)C(C)C) [cholyl-Aβ17-21]	–	–	100	> 5	91	100	> 5	–
iminobiotinyl-KLVFF-OH [iminobiotinyl-Aβ16-20]	–	–	86	1.3	0	86	1.3	–
Cholyl-QKLVF-OH (SMILES CC(C)C[C@H](NC(=O)[C@H](CCCCN)NC(=O)[C@H](CCC(N)=O)NC(=O)CC[C@@H](C)[C@H]1CC[C@H]2[C@@H]3[C@H](O)C[C@@H]4C[C@H](O)CC[C@]4(C)[C@H]3C[C@H](O)[C@]12C)C(=O)N[C@H](C(=O)N[C@@H](Cc1ccccc1)C(=O)O)C(C)C) [cholyl-Aβ15-19]	–	–	~0	3.1	–	-23	3.1	% Inhibition of Plateau; nucleation assay; 10 mole % [2]: ~0%; Fold Increase in Lag Time; nucleation assay; 10 mole % [2]: 1.6 fold
Cholyl-KLTFF [cholyl-Aβ16-20 (Val18->Thr)]	–	–	~0	~1	44	-16	1.1	–
Cholyl-KLVAF-OH (SMILES CC(C)C[C@H](NC(=O)[C@H](CCCCN)NC(=O)CC[C@@H](C)[C@H]1CC[C@H]2[C@@H]3[C@H](O)C[C@@H]4C[C@H](O)CC[C@]4(C)[C@H]3C[C@H](O)[C@]12C)C(=O)N[C@H](C(=O)N[C@@H](C)C(=O)N[C@@H](Cc1ccccc1)C(=O)O)C(C)C) [cholyl-Aβ16-20 (Phe19->Ala)]	–	–	73	2.6	31	73	2.6	–
Cholyl-AAAAA-OH (SMILES C[C@H](NC(=O)[C@H](C)NC(=O)[C@H](C)NC(=O)[C@H](C)NC(=O)[C@H](C)NC(=O)CC[C@@H](C)[C@H]1CC[C@H]2[C@@H]3[C@H](O)C[C@@H]4C[C@H](O)CC[C@]4(C)[C@H]3C[C@H](O)[C@]12C)C(=O)O) [Cholyl-penta-alanine]	–	–	~0	~1	0	-7	0.8	–
Cholyl-KLVFF-NH2 [cholyl-Aβ16-20-amide]	–	–	–	–	52	70	5.4	% Inhibition of Plateau; nucleation assay; 10 mole % [2]: ~0%; Fold Increase in Lag Time; nucleation assay; 10 mole % [2]: 2.7 fold; Fold Increase in Lag Time; nucleation assay; 33 mole % [2]: 5.6 fold
H-KLVFF-OH [unmodified Aβ16-20]	–	–	~0	~1	8	0	1.1	–
Cholyl-DSGYEVHHQKLVFF [cholyl-Aβ7-20]	~0	2	–	–	–	–	–	% Inhibition of Plateau; nucleation assay; 100 mole % [1]: 100%; Fold Increase in Lag Time; nucleation assay; 100 mole % [1]: > 4.5 fold
Cholyl-HDSGYEVHHQKLVFF-NH2 (SMILES CC(C)C[C@H](NC(=O)[C@H](CCCCN)NC(=O)[C@H](CCC(N)=O)NC(=O)[C@H](Cc1c[nH]cn1)NC(=O)[C@H](Cc1c[nH]cn1)NC(=O)[C@@H](NC(=O)[C@H](CCC(=O)O)NC(=O)[C@H](Cc1ccc(O)cc1)NC(=O)CNC(=O)[C@H](CO)NC(=O)[C@H](CC(=O)O)NC(=O)[C@H](Cc1c[nH]cn1)NC(=O)CC[C@@H](C)[C@H]1CC[C@H]2[C@@H]3[C@H](O)C[C@@H]4C[C@H](O)CC[C@]4(C)[C@H]3C[C@H](O)[C@]12C)C(C)C)C(=O)N[C@H](C(=O)N[C@@H](Cc1ccccc1)C(=O)N[C@@H](Cc1ccccc1)C(N)=O)C(C)C) [cholyl-Aβ6-20-amide]	~0	1.8	–	–	–	–	–	–
